Assays:
[1] = target: full-length human TLR4 encoded by pBIND-TLR4 (human) (UniProt O00206); experiment: two-hybrid
[2] = target: full-length human TLR4 encoded by pBIND-TLR4 (human, UniProt O00206 24-839); experiment: two-hybrid
full-length human TLR4 encoded by pBIND-TLR4, sequence (O00206 24-839): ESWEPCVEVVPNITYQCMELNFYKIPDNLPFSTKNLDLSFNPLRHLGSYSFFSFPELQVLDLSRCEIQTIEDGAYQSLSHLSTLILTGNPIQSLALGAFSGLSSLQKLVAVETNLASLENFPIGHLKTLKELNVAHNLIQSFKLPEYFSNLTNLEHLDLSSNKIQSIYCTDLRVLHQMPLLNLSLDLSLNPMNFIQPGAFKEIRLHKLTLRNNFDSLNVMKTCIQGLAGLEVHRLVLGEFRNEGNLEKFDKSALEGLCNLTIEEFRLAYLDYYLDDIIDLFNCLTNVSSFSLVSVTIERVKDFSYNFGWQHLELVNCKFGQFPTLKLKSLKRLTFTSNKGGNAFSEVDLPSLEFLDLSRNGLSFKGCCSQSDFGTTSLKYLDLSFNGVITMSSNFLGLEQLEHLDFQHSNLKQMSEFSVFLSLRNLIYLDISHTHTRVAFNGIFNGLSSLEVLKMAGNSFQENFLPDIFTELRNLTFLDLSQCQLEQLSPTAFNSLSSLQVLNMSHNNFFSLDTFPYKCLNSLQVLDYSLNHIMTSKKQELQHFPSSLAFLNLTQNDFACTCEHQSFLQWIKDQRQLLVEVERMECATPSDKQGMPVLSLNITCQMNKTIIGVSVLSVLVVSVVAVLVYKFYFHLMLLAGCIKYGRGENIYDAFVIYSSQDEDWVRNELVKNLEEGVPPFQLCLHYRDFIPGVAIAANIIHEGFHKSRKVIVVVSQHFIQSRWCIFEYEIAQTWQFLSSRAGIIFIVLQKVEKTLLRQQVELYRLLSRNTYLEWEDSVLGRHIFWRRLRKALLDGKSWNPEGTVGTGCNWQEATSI

full-length human TLR4 encoded by pBIND-TLR4 (human), sequence (O00206 24-839): as above

Molecule | percent binding to TLR4 relative to SPA4 peptide (RLU) [1] [%] | percent binding to TLR4 relative to SPA4 peptide (RLU) [2] [%]
SPA4 peptide alanine mutant NYTXXXRG-12–19→AAAXXXAA encoded by pACT (mammalian two-hybrid fusion) | 74 | 
GAFRYSDGTPVNYTNWYRGE [SPA4 peptide alanine mutant D-2→A encoded by pACT (mammalian two-hybrid fusion)] |  | 81
